Assay results taken from patent publication US20220242962A1 (APTEVO RESEARCH AND DEVELOPMENT, published 2022).

T1: Full-length Human OX40 (human, UniProt P43489 29-277)
T1 sequence: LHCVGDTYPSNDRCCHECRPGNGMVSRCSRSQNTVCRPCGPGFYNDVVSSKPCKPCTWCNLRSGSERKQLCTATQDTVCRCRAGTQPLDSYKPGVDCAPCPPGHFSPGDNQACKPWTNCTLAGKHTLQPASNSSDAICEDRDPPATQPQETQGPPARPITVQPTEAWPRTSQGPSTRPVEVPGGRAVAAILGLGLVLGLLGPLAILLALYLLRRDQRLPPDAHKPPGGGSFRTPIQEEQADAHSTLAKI

T2: Full-length Cyno OX40 (cynomolgus monkey, UniProt P43489 29-277 (human entry))
T2 construct: on CHO-K1SV cells; also called OXF004; cynomolgus OX40
T2 chain: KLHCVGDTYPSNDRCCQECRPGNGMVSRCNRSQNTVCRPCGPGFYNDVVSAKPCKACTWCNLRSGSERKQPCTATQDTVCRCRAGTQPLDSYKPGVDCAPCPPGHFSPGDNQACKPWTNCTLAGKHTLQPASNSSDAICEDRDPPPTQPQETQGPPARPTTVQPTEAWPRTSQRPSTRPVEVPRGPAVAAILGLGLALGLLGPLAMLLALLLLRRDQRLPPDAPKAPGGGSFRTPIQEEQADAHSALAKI

T3: Full-length Cyno 4-1BB (cynomolgus monkey, UniProt Q07011 24-255 (human entry))
T3 construct: on Jurkat or CHO cells; also called FOB006; cynomolgus 4-1BB
T3 chain: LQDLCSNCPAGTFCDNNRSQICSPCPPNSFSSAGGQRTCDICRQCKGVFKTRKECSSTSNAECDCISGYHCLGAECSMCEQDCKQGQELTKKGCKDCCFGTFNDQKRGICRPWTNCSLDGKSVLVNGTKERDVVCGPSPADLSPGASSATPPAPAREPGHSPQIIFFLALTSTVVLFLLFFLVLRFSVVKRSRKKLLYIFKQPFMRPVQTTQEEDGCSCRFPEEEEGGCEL

T4: Human OX40 ECD-AFH (human)
T4 construct: ECD'; entry includes the C-terminal tags; also called OXF003; Human OX40 ECD-avi-flag-his
T4 chain: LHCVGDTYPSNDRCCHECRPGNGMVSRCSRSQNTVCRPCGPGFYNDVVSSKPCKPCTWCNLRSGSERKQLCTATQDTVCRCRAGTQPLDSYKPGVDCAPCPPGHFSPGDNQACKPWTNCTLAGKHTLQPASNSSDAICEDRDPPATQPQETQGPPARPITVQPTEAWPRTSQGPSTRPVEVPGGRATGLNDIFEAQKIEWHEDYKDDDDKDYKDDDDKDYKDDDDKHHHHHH


Key:
[1] = target: T5, Full-length Human 4-1BB (human, UniProt Q07011 24-255); assay: cell-based or functional assay
[2] = target: T1, Full-length Human OX40; assay: cell-based or functional assay
[3] = target: T1, Full-length Human OX40; assay: flow cytometry, CHO cells expressing human OX40
Experimental: (§1) FIGS. 12A-12D show the binding of anti-4-1BB x anti-OX40 constructs, with additional humanization in 4-1BB and altered orientations of binding domains, human (12A) or cynomolgus (12C) 4-1BB-expressing Jurkat cells or human (12B) or cynomolgus (12D) OX40-expressing CHOK1SV cells. Serial dilutions of ADAPTIR™ constructs were incubated with transfected cells and subsequently labelled with a fluorescently-conjugated goat-a-human Fc secondary antibody. […] (See Example 19.)
(§2) Binding studies were performed using the flow cytometry-based staining procedures described above.

[4] = target: T5, Full-length Human 4-1BB; assay: flow cytometry, Jurkat cells expressing human 4-1BB
Experimental: as §1, §2

[5] = target: T2, Full-length Cyno OX40; assay: flow cytometry on CHOK1SV cells transfected with cynomolgus OX40, goat anti-human Fc secondary antibody, MFI (Mean)
Experimental: as §1, §2

[6] = target: T3, Full-length Cyno 4-1BB; assay: flow cytometry on Jurkat cells transfected with cynomolgus 4-1BB, goat anti-human Fc secondary antibody, MFI (Mean)
Experimental: as §1, §2

[7] = target: T6, Human 4-1BB ECD-AFH (human); assay: SPR, construct captured, monomeric ECD as analyte
T6 construct: entry includes the tags; also called FOB003; HUMAN CD137 ECD-AVI-FLAG-HIS
Experimental: (§3) Mouse anti-human IgG (GE, BR-1008-39) at 25 μg/ml in 10 mM sodium acetate pH 5.0 was immobilized at a density of ˜10,000 response units (RU) onto each flow cell of a CM5 research-grade sensor chip (GE) by standard amine coupling chemistry. Each binding protein at approximately 100 nM in HBS-EP+ with 0.2% BSA buffer was captured in a flow cell with the immobilized anti-human IgG at a flow rate of 10 μL/min for 20 seconds, leaving one flow cell surface unmodified as the reference. Using a single-cycle kinetics mode, five different concentrations of ECD were sequentially injected through each flow cell at 30 μL/min for 300 seconds followed by a 600 second dissociation period. Regeneration was achieved by injection of 3 M MgCl₂ at a flow rate of 30 μL/min for 30 seconds followed by HBS-EP+ with 0.2% BSA buffer stabilization for 1 min.
(§4) Sensorgrams obtained from kinetic SPR measurements were analyzed by the double subtraction method. The signal from the reference flow cell was subtracted from the analyte binding response obtained from flow cells with immobilized or captured ligands. Buffer reference responses were then averaged from multiple injections. The averaged buffer reference responses were then subtracted from analyte binding responses, and the final double-referenced data were analyzed with Biacore T200 Evaluation software (2.0, GE), globally fitting data to derive kinetic parameters. All sensorgrams were fitted using a simple one-to-one binding model.
(§5) Protein was produced by transient expression, purified by ProA chromatography and prep SEC.

[8] = target: T4, Human OX40 ECD-AFH; assay: SPR, construct captured, monomeric ECD as analyte
Experimental: as §3, §4, §5

T6 sequence (chain, as listed by the source limits assumed): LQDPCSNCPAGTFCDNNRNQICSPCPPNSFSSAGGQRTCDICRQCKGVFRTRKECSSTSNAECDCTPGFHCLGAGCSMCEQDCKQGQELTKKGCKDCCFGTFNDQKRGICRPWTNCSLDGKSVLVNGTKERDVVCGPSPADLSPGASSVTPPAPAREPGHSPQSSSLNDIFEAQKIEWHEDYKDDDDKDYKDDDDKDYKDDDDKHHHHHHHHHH

| 4-1BB Reporter Assay EC50 [1] | 4-1BB Reporter Assay Max induction [1] | OX40 Reporter Assay EC50 [2] | OX40 Reporter Assay Max induction [2] | EC50 [3] | max MFI [3] | EC50 [4] | max MFI [4] | EC50 (read off the curve) [5] | EC50 (read off the curve) [6] | Kd [7] | koff [7] | kon [7] | Kd [8] | koff [8] | kon [8] | Binder |
| --- | --- | --- | --- | --- | --- | --- | --- | --- | --- | --- | --- | --- | --- | --- | --- | --- |
| 0.011 nM | 6.11e+06 | 0.013 nM | 1.99e+06 | 0.32 nM | 10400 MFI | 0.31 nM | 4860 MFI | ~0.8 nM | ~0.3 nM | 17 nM | 0.0055 s⁻¹ | 320000 M⁻¹ s⁻¹ | 0.5 nM | 0.00032 s⁻¹ | 710000 M⁻¹ s⁻¹ | FXX01104 (bispecific antibody, ADAPTIR anti-4-1BB (LH) x anti-OX40; also called FX01104) EIVMTQSPATLSLSPGERATLSCRASQSVSSYLNWYQQKPGQAPRLLIYYASRRHTGIPARFSGSGSGTDFTLTISSLQPEDFAVYYCQQGYNLPYTFGQGTKVEIKGGGGSGGGGSGGGGSGGGGSEVQLVQSGAEVKKPGASVKVSCKASGYTFTSYWMNWVRQAPGQGLEWMGNIYPSGGSTNYAQKFQGRVTMTVDTSTSTVYMELSSLRSEDTAVYYCASFSDGYYAYAMDYWGQGTLVTVEPKSSDKTHTCPPCPAPPAAAPSVFLFPPKPKDTLMISRTPEVTCVVVDVSHEDPEVKFNWYVDGVEVHNAKTKPREEQYNSTYRVVSVLTVLHQDWLNGKEYKCAVSNKALPAPIEKTISKAKGQPREPQVYTLPPSRDELTKNQVSLTCLVKGFYPSDIAVEWESNGQPENNYKTTPPVLDSDGSFFLYSKLTVDKSRWQQGNVFSCSVMHEALHNHYTQKSLSLSPGGGGSPSSYVLTQPPSVSVAPGQTARITCGGNNIGSKSVNWFQQKPGQAPVLVVYDDSGRPSGIPERFSGSTSGNTATLTISRVEAGDEADYYCQVWDSSSDHVVFGGGTKLTVLGGGGSGGGGSGGGGSGGGGSQVQLVESGGGVVQPGRSLRLSCAASGFTLSYYGMHWVRQAPGKGLEWVAAISHDGSDKYYADSVKGRFTISRDNSKNTLYLQMNSLRAEDTAVYYCSNDQFDPWGQGTLVTVSSR |
| 0.014 nM | 6.58e+06 | 0.01 nM | 1.97e+06 | 0.35 nM | 10500 MFI | 0.33 nM | 4940 MFI | ~0.8 nM | ~0.3 nM | 19 nM | 0.0055 s⁻¹ | 290000 M⁻¹ s⁻¹ | 0.4 nM | 0.00027 s⁻¹ | 710000 M⁻¹ s⁻¹ | FXX01105 (bispecific antibody, ADAPTIR anti-4-1BB (LH) x anti-OX40 with Q17K; also called FX01105) EIVMTQSPATLSLSPGERATLSCRASQSVSSYLNWYQQKPGQAPRLLIYYASRRHTGIPARFSGSGSGTDFTLTISSLQPEDFAVYYCQQGYNLPYTFGQGTKVEIKGGGGSGGGGSGGGGSGGGGSEVQLVQSGAEVKKPGASVKVSCKASGYTFTSYWMNWVRQAPGQGLEWMGNIYPSGGSTNYAQKFQGRVTMTVDTSTSTVYMELSSLRSEDTAVYYCASFSDGYYAYAMDYWGQGTLVTVEPKSSDKTHTCPPCPAPPAAAPSVFLFPPKPKDTLMISRTPEVTCVVVDVSHEDPEVKFNWYVDGVEVHNAKTKPREEQYNSTYRVVSVLTVLHQDWLNGKEYKCAVSNKALPAPIEKTISKAKGQPREPQVYTLPPSRDELTKNQVSLTCLVKGFYPSDIAVEWESNGQPENNYKTTPPVLDSDGSFFLYSKLTVDKSRWQQGNVFSCSVMHEALHNHYTQKSLSLSPGGGGSPSSYVLTQPPSVSVAPGKTARITCGGNNIGSKSVNWFQQKPGQAPVLVVYDDSGRPSGIPERFSGSTSGNTATLTISRVEAGDEADYYCQVWDSSSDHVVFGGGTKLTVLGGGGSGGGGSGGGGSGGGGSQVQLVESGGGVVQPGRSLRLSCAASGFTLSYYGMHWVRQAPGKGLEWVAAISHDGSDKYYADSVKGRFTISRDNSKNTLYLQMNSLRAEDTAVYYCSNDQFDPWGQGTLVTVSSR |
| 0.016 nM | 6.85e+06 | 0.013 nM | 2.14e+06 | 0.29 nM | 10300 MFI | 0.26 nM | 4700 MFI | ~0.8 nM | ~0.3 nM | 18 nM | 0.0056 s⁻¹ | 310000 M⁻¹ s⁻¹ | 0.5 nM | 0.00029 s⁻¹ | 630000 M⁻¹ s⁻¹ | FXX01107 (bispecific antibody, ADAPTIR anti-4-1BB (LH) x anti-OX40 with T86R; also called FX01107) EIVMTQSPATLSLSPGERATLSCRASQSVSSYLNWYQQKPGQAPRLLIYYASRRHTGIPARFSGSGSGTDFTLTISSLQPEDFAVYYCQQGYNLPYTFGQGTKVEIKGGGGSGGGGSGGGGSGGGGSEVQLVQSGAEVKKPGASVKVSCKASGYTFTSYWMNWVRQAPGQGLEWMGNIYPSGGSTNYAQKFQGRVTMTVDTSTSTVYMELSSLRSEDTAVYYCASFSDGYYAYAMDYWGQGTLVTVEPKSSDKTHTCPPCPAPPAAAPSVFLFPPKPKDTLMISRTPEVTCVVVDVSHEDPEVKFNWYVDGVEVHNAKTKPREEQYNSTYRVVSVLTVLHQDWLNGKEYKCAVSNKALPAPIEKTISKAKGQPREPQVYTLPPSRDELTKNQVSLTCLVKGFYPSDIAVEWESNGQPENNYKTTPPVLDSDGSFFLYSKLTVDKSRWQQGNVFSCSVMHEALHNHYTQKSLSLSPGGGGSPSSYVLTQPPSVSVAPGQTARITCGGNNIGSKSVNWFQQKPGQAPVLVVYDDSGRPSGIPERFSGSTSGNTATLTISRVEAGDEADYYCQVWDSSSDHVVFGGGTKLTVLGGGGSGGGGSGGGGSGGGGSQVQLVESGGGVVQPGRSLRLSCAASGFTLSYYGMHWVRQAPGKGLEWVAAISHDGSDKYYADSVKGRFTISRDNSKNRLYLQMNSLRAEDTAVYYCSNDQFDPWGQGTLVTVSSR |
